This note sets out measurements from paper doi:10.1101/447979.

This assay deals with FLAG-tagged human importin-α7 (human) (UniProt O60684). Description: co-IP.

With “nucleoprotein (NP) of 2009 pandemic H1N1 influenza A virus A/Hamburg/NY1580/09, parental (natural protein)”, the fold binding against importin-α1 was 10 fold.
